1 molecule from paper PMC5071372, “Combining biophysical methods to analyze the disulfide bond in SH2 domain of C-terminal Src kinase” (Biophysics Reports, 2016) can be followed below.

Square brackets hold non-standard residues; d marks the D form. Ends that are not written are not given here. pY = N[C@@H](Cc1ccc(OP(=O)(O)O)cc1)C(=O)O

The target in assay [1] is T1, Csk L-SH2 domain (A73–A178), reduced form (human, UniProt P41240 73-178).
T1 construct: C-terminal Src kinase (Csk), human, SH2 domain with part of the SH3-SH2 linker, residues A73-A178; C122 and C164 as free thiols; Cloned into pTWIN1 as described in Liu et al. 2009; 15N/13C-labelled for the NMR experiments; PDB 3EAC is the oxidized form of the same construct; also called reduced SH2; reduced L-SH2; source: E. coli BL21 (DE3) RIL, purified (chitin beads, intein cleaved with 50 …)
T1 sequence (looked up): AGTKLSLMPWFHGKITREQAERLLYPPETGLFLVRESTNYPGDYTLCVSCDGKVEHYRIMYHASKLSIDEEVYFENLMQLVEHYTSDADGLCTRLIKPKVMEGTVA
The experiment in a line: other fluorescence titration; intrinsic tryptophan fluorescence of L-SH2 (typically 5 μmol/L) titrated with Cbp peptide; 25 °C, 3 mL of 50 mmol/L Tris-HCl pH 7.5; excitation 288 nm, emission 320 nm. To be noted: both partners purified.

In assay [2] the target is T2, Csk L-SH2 domain (A73–A178), oxidized form (human, UniProt P41240 73-178, disulfide bond C122–C164).
T2 construct: C-terminal Src kinase (Csk), human, SH2 domain with part of the SH3-SH2 linker, residues A73-A178; intramolecular disulfide bond between C122 and C164; Same polypeptide as m1, differing only in the C122–C164 disulfide bond; also called oxidized SH2; oxidized L-SH2; source: E. coli BL21 (DE3) RIL, purified (chitin beads, intein cleaved with DTT, Mono Q); oxidized by exposure to air for about a …
T2 sequence (looked up): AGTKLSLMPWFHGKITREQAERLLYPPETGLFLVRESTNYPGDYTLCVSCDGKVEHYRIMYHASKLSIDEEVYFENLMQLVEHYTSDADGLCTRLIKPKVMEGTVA
The assay is described as above. To be noted: both partners purified.

B1: Cbp phosphopeptide ISAMpYSSVNK (peptide)
peptide: ISAM[pY]SSVNK
notes: also called Cbp peptide; Cbp-phosphorylated peptide; source: synthetic peptide (GenScript, solid-phase synthesis)
As to B1, the results for the dissociation constant (Kd) in assay [1] and in assay [2] were 520 ± 50 nM and 990 ± 80 nM, respectively.

What is called Kd is the concentration at which binding is half-saturated. Lower therefore signals a tighter complex.
